The results in this text go back to PMC1368978, “Crystal structure of a DNA polymerase sliding clamp from a Gram-positive bacterium” (BMC Structural Biology, 2006).

For orientation: stoichiometry N means the number of molecules, sites or subunits per partner or assembly.

The data set concerns the molecule itself. The experiment in a line: crystal structure; hanging drop, 20 mg/mL protein in Buffer A + 100 mM NaCl; 30% PEG 2000 MME, 100 mM sodium acetate pH 4.5, 200 mM ammonium sulfate, 20°C; space group P2(1), one dimer in the asymmetric unit; refined to 2.1 Å.

B1: β subunit of the DNA polymerase III holoenzyme of Streptococcus pyogenes (natural protein)
chain: MIQFSINRTLFIHALNTTKRAISTKNAIPILSSIKIEVTSTGVTLTGSNGQISIENTIPVSNENAGLLITSPGAILLEASFFINIISSLPDISINVKEIEQHQVVLTSGKSEITLKGKDVDQYPRLQEVSTENPLILKTKLLKSIIAETAFAASLQESRPILTGVHIVLSNHKDFKAVATDSHRMSQRLITLDNTSADLMVVLPSKSLREFSAVFTDDIETVEVFFSPSQILFRSEHISFYTRLLEGNYPDTDRLLMTEFETEVVFNTQSLRHAMERAFLISNATQNGTVKLEITQNHISAHVNSPEVGKVNEDLDIVSQSGSDLTISFNPTYLIESLKAIKSETVKIHFLSPVRPFTLTPGDEEESFIQLITPVRTN
notes: β subunit (sliding clamp) of DNA polymerase III, Streptococcus pyogenes; residues up to Thr 377 are named in the model; A selenomethionine-derivatized form was also made and crystallized for phasing (MAD); also called S. pyogenes β subunit; S. pyogenes β clamp; source: E. coli BLR DE3 (plasmid pETSpdnaN), purified (ammonium sulfate cut, Fast Flow Q, EAH-Sepharose 4B, Mono Q)
Consider B1, for which the “stoichiometry N” value was 2.
